Source: US20250235516A1 (UNIVERSITY OF SOUTH FLORIDA, published 2025)
Each block holds one binder with its values, some of them ahead of it.

Legend:
[1] = biological target: Matrix metalloproteinase-2 (UniProt P08253 110-465, limits assumed); assay: cell-based or functional assay
neutrophil elastase = biological target: T1, neutrophil elastase (human, UniProt P08246 30-247, limits assumed); assay: cell-based or functional assay
T1 sequence (looked up): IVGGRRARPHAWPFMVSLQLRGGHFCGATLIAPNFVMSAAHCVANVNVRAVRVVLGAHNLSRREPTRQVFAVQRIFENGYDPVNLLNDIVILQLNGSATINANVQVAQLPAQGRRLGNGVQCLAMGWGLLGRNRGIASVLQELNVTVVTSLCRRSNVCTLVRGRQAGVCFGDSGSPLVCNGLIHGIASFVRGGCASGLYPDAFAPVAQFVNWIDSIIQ

Chain of Matrix metalloproteinase-2 (P08253 110-465 limits assumed): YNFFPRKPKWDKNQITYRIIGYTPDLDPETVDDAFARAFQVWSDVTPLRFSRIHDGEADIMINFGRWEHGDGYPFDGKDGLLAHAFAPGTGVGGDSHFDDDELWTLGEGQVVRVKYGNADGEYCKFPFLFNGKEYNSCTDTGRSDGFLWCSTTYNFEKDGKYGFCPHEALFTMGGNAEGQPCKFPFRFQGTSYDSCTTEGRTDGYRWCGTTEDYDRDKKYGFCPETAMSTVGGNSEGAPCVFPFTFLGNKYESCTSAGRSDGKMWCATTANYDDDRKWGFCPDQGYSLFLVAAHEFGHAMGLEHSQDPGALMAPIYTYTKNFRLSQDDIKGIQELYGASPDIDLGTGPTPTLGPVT

- IC50 of MMP-2 inhibition (kinetic colorimetric substrate assay) [1]: 40 µg/mL
- IC50 of NE inhibition (kinetic colorimetric substrate assay) (neutrophil elastase): 0.00085 µg/mL
B1: PMPD2-L10FLAG-APP-IP (designed binder)
chain: EEKCTPGQVKQQDCNTCTCTPTGVWGCTLMGCQPAVPGVGVPGVGVPGLGVPGVGVPGVGVPGVGVPGVGVPGLGVPGVGVPGVGVPGVGVPGVGVPGLGVPGVGVPGVGVPGVGVPGVGVPGLGVPGVGVPGVGVPGVGVPGVGVPGLGVPGVGVPGVGVPGVGVPGVGVPGLGVPGVGVPGVGVPGVGVPGVGVPGLGVPGVGVPGVGVPGVGVPGVGVPGLGVPGVGVPGVGVPGVGVPGVGVPGLGVPGVGVPGVGVPGVGVPGVGVPGLGVPGVGVPGVGDYKDDDDKISYGNDALMP

- IC50 of MMP-2 inhibition (kinetic colorimetric substrate assay) [1]: 50 µg/mL
- % inhibition of NE near the IC50 of the dual inhibitor (neutrophil elastase): 8.4%
B2: APP-IP-L10FLAG (designed binder)
chain: ISYGNDALMPVPGVGVPGVGVPGLGVPGVGVPGVGVPGVGVPGVGVPGLGVPGVGVPGVGVPGVGVPGVGVPGLGVPGVGVPGVGVPGVGVPGVGVPGLGVPGVGVPGVGVPGVGVPGVGVPGLGVPGVGVPGVGVPGVGVPGVGVPGLGVPGVGVPGVGVPGVGVPGVGVPGLGVPGVGVPGVGVPGVGVPGVGVPGLGVPGVGVPGVGVPGVGVPGVGVPGLGVPGVGVPGVGVPGVGVPGVGVPGLGVPGVGVPGVGDYKDDDDK

- IC50 of NE inhibition (kinetic colorimetric substrate assay) (neutrophil elastase): 0.00708 µg/mL
B3: PMPD2-L10FLAG (designed binder)
chain: EEKCTPGQVKQQDCNTCTCTPTGVWGCTLMGCQPAVPGVGVPGVGVPGLGVPGVGVPGVGVPGVGVPGVGVPGLGVPGVGVPGVGVPGVGVPGVGVPGLGVPGVGVPGVGVPGVGVPGVGVPGLGVPGVGVPGVGVPGVGVPGVGVPGLGVPGVGVPGVGVPGVGVPGVGVPGLGVPGVGVPGVGVPGVGVPGVGVPGLGVPGVGVPGVGVPGVGVPGVGVPGLGVPGVGVPGVGVPGVGVPGVGVPGLGVPGVGVPGVGVPGVGVPGVGVPGLGVPGVGVPGVGDYKDDDDK
